Assay results from US20070099822A1, “Regulation of tissue mineralization and phosphate metabolism by asarm peptides” (priority 2003, published 2007).

System: Male ICR-Swiss mice
Test: Intraperitoneal administration of Hu-MEPE and PTH (1-34) into mice, serum and urine assays
Type: in vivo
Details: for serum phosphate: vehicle 11.94; for serum 1,25-dihydroxy vitamin-D3: vehicle 25.2; for serum alkaline phosphatase: vehicle 65.06
Experimental: Intraperitoneal administration of Hu-MEPE and PTH (1-34) into mice. Male ICR-Swiss mice were used as recipients for intraperitoneal administration (100 μl) of 0.1% phosphate-buffered saline/0.1% bovine serum albumin (vehicle) and experimental conditions (Hu-MEPE and PTH 1-34) dissolved in 100 μL of vehicle. Two separate (repeat) experiments were conducted consisting of four groups with 6 and 7 animals per group. The control group was administered with 100 μL of vehicle (Group-1). Group-2 consisted of animals administered with 0.8 μg/injection of parathyroid hormone (PTH 1-34). Group 3 were injected with 0.4 μg/injection of Hu-MEPE and Group-4 with 4 μg/injection of Hu-MEPE. On day one, three bolus injections were given at 0, 3 h, and 6 h. Serum samples were then collected via retro-orbital bleed one hour after the 6 h bolus administration. The next day or 30 hours after the first bolus a fourth bolus (same amount) was given and after 1 h the animals were sacrificed and serum prepared after cardiac exsanguination. The total amounts of PTH and MEPE administered over the 30 h were 80 μg/kg/30 h PTH 1-34, 40 μg/kg/30 h Hu-MEPE (MEPE-40) and 400 μg/kg/30 h Hu-MEPE (MEPE-400). Each group was placed in a separate metabolic cage and urine was collected for the 6-hour period. After the first 6-hour urine collection mice were replaced in thoroughly cleaned metabolic cages for the remaining 24 hours. The second 24-hour urine was collected immediately after the animals were sacrificed. The urine volumes for the second and first collections were measured. Collecting urine samples from large numbers of small mice over the time frame of the experiment was not feasible. Therefore, urine samples from each group (n=7) were pooled and volumes measured via a specially designed collecting duct in the metabolic cage. To ensure reproducibility the experiment was repeated twice (the same changes occurred). To calculate the fractional excretion of phosphate (FEP) the following equation was used: 100−(100×(1−(A/B))) where A=(urine phosphorus in mg/dL)×(serum creatinine in mg/dL) and B=(urine creatinine in mg/dL)×(serum phosphorus in mg/dL). To calculate renal phosphorus clearance (RPC) in mL/minute following computation was used: (urine phosphorus in mg/dL)×(urinary volume in mL)/((serum phosphorus in mg/dL)×(time of collection in minutes)). The phosphate excretion index (PEI) was calculated using the same method described by Shimada et al. (Cloning and characterization of FGF23 as a causative factor of tumor-induced osteomalacia, Proc Natl Acad Sci USA 98:6500-6505, 2001) using the following formula: ((urinary concentration of phosphorus in mg/dL)/(serum concentration of phosphorus in mg/dL))/(total urinary creatinine in mg).
Serum and urine assays. Serum and urine assays for phosphate, calcium, chloride, potassium, creatinine, glucose and alkaline phosphatase were accomplished using 96 well format KC4-spectrophotometer multiplate kinetic/end-point analyses using routine methods and diagnostic-kits Sigma-Diagnostics). Serum 1,25-dihydroxy vitamin-D3 levels were estimated using the method of Reinhardt, et al. (A microassay for 1,25-dihydroxyvitamin D not requiring high performance liquid chromatography: application to clinical studies, J Clin Endocrinol Metab 58:91-98, 1984). Analysis of data for fractional excretion of phosphate (FEP) was carried out following the same method described previously by Shimada et al. (Mutant FGF-23 responsible for autosomal dominant hypophosphatemic rickets is resistant to proteolytic cleavage and causes hypophosphatemia in vivo, Endocrinology 143:3179-82, 2002) for FGF23 bolus administration studies and by Nesbitt et al. (Crosstransplantation of kidneys in normal and Hyp mice: Evidence that the Hyp mouse phenotype is unrelated to an intrinsic renal defect, J Clin Invest 89:1453-59, 1992) for renal cross-transplantation experiments in Hyp mice.
Statistical methods. […]

B1: Hu-MEPE: purified insect expressed full-length recombinant human MEPE (Matrix Extracellular Phosphoglycoprotein) (protein)
chain: PTFQPQTEKTKQSCVEEQRQEEKNKDNIGFHHLGKRINQELSSKENIVQERKKDLSLSEASENKGSSKSQNYFTNRQRLNKEYSISNKENTHNGLRMSIYPKSTGNKGFEDGDDAISKLHDQEEYGAALIRNNMQHIMGPVTAIKLLGEENKENTPRNVLNIIPASMNYAKAHSKDKKKPQRDSQAQKSPVKSKSTHRIQHNIDYLKHLSKVKKIPSDFEGSGYTDLQERGDNDISPFSGDGQPFKDIPGKGEATGPDLEGKDIQTGFAGPSEAESTHLDTKKPGYNEIPEREENGGNTIGTRDETAKEADAVDVSLVEGSNDIMGSTNFKELPGREGNRVDAGSQNAHQGKVEFHYPPAPSKEKRKEGSSDAAESTNYNEIPKNGKGSTRKGVDHSNRNQATLNEKQRFPSKGKSQGLPIPSRGLDNEIKNEMDSFNGPSHENIITHGRKYHYVPHRQNNSTRNKGMPQGKGSWGRQPHSNRRFSSRRRDDSSESSDSGSSSESDGD
urine phosphate (7 h, MEPE-40 i.p., vehicle 31.8): 41.0 mg/dL | fractional excretion of phosphate (FEP) (7 h, MEPE-400, vehicle 7.8%): 14.43% | urine phosphate (7 h, MEPE-400 i.p., vehicle 31.8): 56.1 mg/dL | serum phosphate (31 h, MEPE-40 (40 ug/kg/30 h) i.p., not statistically significant): 10.6 mg/dL | serum 1,25-dihydroxy vitamin-D3 (31 h, MEPE-40, pooled): 31.5 pg/mL | serum alkaline phosphatase (31 h, MEPE-40): 45.63 U/L | serum 1,25-dihydroxy vitamin-D3 (31 h, MEPE-400, pooled): 45.05 pg/mL | fractional excretion of phosphate (FEP) (31 h, MEPE-400, vehicle 28.7%): 65.0% | serum alkaline phosphatase (31 h, MEPE-400): 46.31 U/L | urine phosphate vs vehicle (31 h, low-dose MEPE-40): not significantly different | serum phosphate (31 hours, MEPE-400 (400 ug/kg/30 h) i.p.): 8.23 mg/dL | urine phosphate (31 h second urine, MEPE400, vehicle 175.9): 297.4 mg/dL | serum phosphate vs vehicle (after 7 hours, i.p., PTH and MEPE animals): no significant differences | serum calcium vs vehicle (after 7 hours, PTH 80 ug/kg/30 h, low Hu-MEPE dose): not significantly different | FEP vs vehicle (low dose MEPE-40): not significantly different
